Positions count from the first letter of the chain named. Names and notes keep the numbering of the source.
B1: 5E3KCDR3-Y91F (antibody, IgG1, V domains shown)
VH: QVQLQQSGPEVKKPGASVKISCKASGYIFTSYYIQWVIHAPGQGLEWIGWIYPGNVNTKYNEKFKGKATLTADKSSSTAYMELSSLTSEDTAVYFCARMDYEAHYWGQGTTVTVSS
VL: DIQMTQSPSSLSASVGDRVTITCRASQEISGYLTWLQQKPEGAIKRLIYAASTLDSGVPKRFSGSRSGSDYSLTISSLQPEDFATYNCLQFANYPRTFGGGTKLEIK
notes: hu5E3 IgG1 vector mutant
B2: 5E3KCDR3-Y94F (antibody, IgG1, V domains shown)
VH: B1 VH
VL: B1 VL with F91Y, Y94F
notes: hu5E3 IgG1 vector mutant
B3: 5E3HCDR3-Y208F (antibody, IgG1, V domains shown)
VH: B1 VH with Y101F
VL: B1 VL with F91Y
notes: hu5E3 IgG1 vector mutant
B4: 5E3HCDR3-Y212F (antibody, IgG1, V domains shown)
VH: B1 VH with Y105F
VL: B1 VL with F91Y
notes: hu5E3 IgG1 vector mutant
B5: 5E3KCDR2-A74D (antibody, IgG1, V domains shown)
VH: B1 VH
VL: B1 VL with A50D, F91Y
notes: hu5E3 IgG1 vector mutant; also called 5E3-A74D-AFF
B6: 5E3KCDR2-G81D (antibody, IgG1, V domains shown)
VH: B1 VH
VL: B1 VL with G57D, F91Y
notes: hu5E3 IgG1 vector mutant; also called 5E3-G81D-AFF
B7: 5E3KCDR2-S80D (antibody, IgG1, V domains shown)
VH: B1 VH
VL: B1 VL with S56D, F91Y
notes: hu5E3 IgG1 vector mutant; also called 5E3-S80D-AFF
B8: 5E3KCDR2-S80Y (antibody, IgG1, V domains shown)
VH: B1 VH
VL: B1 VL with S56Y, F91Y
notes: hu5E3 IgG1 vector mutant
B9: 5E3KCDR3-A116Y (antibody, IgG1, V domains shown)
VH: B1 VH
VL: B1 VL with F91Y, A92Y
notes: hu5E3 IgG1 vector mutant
B10: 5E3KCDR3-L89I (antibody, IgG1, V domains shown)
VH: B1 VH
VL: B1 VL with L89I, F91Y
notes: hu5E3 IgG1 vector mutant
B11: 5E3KCDR3-L89I + 5E3HCDR3-Y212F (antibody, IgG1, V domains shown)
VH: B1 VH with Y105F
VL: B1 VL with L89I, F91Y
notes: double combination in hu5E3 IgG1
B12: 5E3KCDR3-N93D (antibody, IgG1, V domains shown)
VH: B1 VH
VL: B1 VL with F91Y, N93D
notes: hu5E3 IgG1 vector mutant; same change as 5E3KCDR3-N117D
B13: 5E3KCDR3-N93D + 5E3HCDR3-Y212F (antibody, IgG1, V domains shown)
VH: B1 VH with Y105F
VL: B1 VL with F91Y, N93D
notes: as for B11
B14: 5E3KCDR3-N93Q (antibody, IgG1, V domains shown)
VH: B1 VH
VL: B1 VL with F91Y, N93Q
notes: hu5E3 IgG1 vector mutant
B15: 5E3KCDR3-N93Q + 5E3HCDR3-Y212F (antibody, IgG1, V domains shown)
VH: B1 VH with Y105F
VL: B1 VL with F91Y, N93Q
notes: as for B11
B16: HuΔ5E3-IgG1 (IHR) (antibody, V domains shown)
VH: B1 VH with A40R
VL: B1 VL with F91Y
notes: human IgG1; also called huΔ5E3 IHR Mutation
B17: HuΔ5E3-IgG1 (IQR) (antibody, V domains shown)
VH: B1 VH with H39Q, A40R
VL: B1 VL with F91Y
notes: human IgG1; also called huΔ5E3 IQR Mutation
B18: HuΔ5E3-IgG1 (KHA) (antibody, V domains shown)
VH: B1 VH with I38K
VL: B1 VL with F91Y
notes: human IgG1; also called huΔ5E3 KHA Mutation
B19: HuΔ5E3-IgG1 (KQA) (antibody, V domains shown)
VH: B1 VH with I38K, H39Q
VL: B1 VL with F91Y
notes: human IgG1; also called huΔ5E3 KQA Mutation
B20: HuΔ5E3-IgG1 (KQR) (antibody, V domains shown)
VH: B1 VH with I38K, H39Q, A40R
VL: B1 VL with F91Y
notes: human IgG1; also called hu5E3 IgG1 KQR; huΔ5E3 KQR Mutation
B21: HuΔ5E3-IgG2 (KQR) (antibody, V domains shown)
VH: B1 VH with I38K, H39Q, A40R
VL: B1 VL with F91Y
notes: KQR framework 2 variant of hu5E3 on human IgG2
B22: HuΔ5E3-IgG4 (KQR) (antibody, V domains shown)
VH: B1 VH with I38K, H39Q, A40R
VL: B1 VL with F91Y
notes: KQR framework 2 variant of hu5E3 on human IgG4

The binders below were run against T1, cSNK:BSA conjugate (bovine, head-to-tail cyclized; conjugated to BSA carrier) (assay: BLI (Octet), compared to hu5E3).
T1 construct: also called BSA-cSNK
T1 sequence (P02769 25-607 limits assumed): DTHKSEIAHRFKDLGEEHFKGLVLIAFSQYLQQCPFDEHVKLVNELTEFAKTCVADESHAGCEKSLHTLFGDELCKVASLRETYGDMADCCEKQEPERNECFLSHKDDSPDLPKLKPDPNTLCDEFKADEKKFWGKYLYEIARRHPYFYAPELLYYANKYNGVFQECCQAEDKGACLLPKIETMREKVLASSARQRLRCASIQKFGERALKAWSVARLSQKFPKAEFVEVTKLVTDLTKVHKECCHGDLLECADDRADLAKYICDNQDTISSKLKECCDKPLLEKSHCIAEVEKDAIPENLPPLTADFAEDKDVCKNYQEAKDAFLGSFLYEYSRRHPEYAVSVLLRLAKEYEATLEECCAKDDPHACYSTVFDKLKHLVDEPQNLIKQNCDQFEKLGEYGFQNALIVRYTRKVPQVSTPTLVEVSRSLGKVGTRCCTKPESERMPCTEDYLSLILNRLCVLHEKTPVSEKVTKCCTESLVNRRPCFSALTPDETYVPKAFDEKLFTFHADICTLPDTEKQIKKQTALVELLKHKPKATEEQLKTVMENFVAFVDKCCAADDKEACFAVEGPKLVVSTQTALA

Q: Does B1 bind?
A: Result: no binding (tested: 100 nM)

Q: Does B2 bind?
A: Result: no binding (tested: 100 nM)

Each binder was assayed against T1, cSNK:BSA conjugate (assay: BLI (Octet), KD1).

Q: How did the Kd turn out when B3 was run?
A: The Kd was 21.5 nM.

Q: How did the Kd turn out when B4 was run?
A: Its Kd is 1.58 nM.

Q: For B5, which Kd is on record?
A: Its Kd is 0.302 nM.

Q: How did the Kd turn out when B6 was run?
A: The Kd was 0.0192 nM.

Q: How did the Kd turn out when B7 was run?
A: Its Kd is 0.0269 nM.

Q: B8 was tested. Which Kd did it give?
A: Its Kd is 0.0138 nM.

Q: How did the Kd turn out when B9 was run?
A: Its Kd is < 0.001 nM.

Q: Which Kd does the source give for B10 here?
A: Its Kd is 1.62 nM.

Q: For B11, which Kd is on record?
A: Its Kd is 0.021 nM.

Q: Which Kd does the source give for B12 here?
A: The Kd was 4.25 nM.

Q: Which Kd does the source give for B13 here?
A: The Kd was 0.0194 nM.

Q: How did the Kd turn out when B14 was run?
A: Its Kd is 9.12 nM.

Q: B15 was tested. Which Kd did it give?
A: The Kd was 0.0201 nM.

Each binder was assayed against T1, cSNK:BSA conjugate (assay: BLI (Octet), 1:1 model, BSA-cSNK).
Experimental: Biolayer interferometry (Octet Red92, ForteBio) was used to qualitatively/quantitatively assess the interactions between humanized 5E3 and Δ5E3 mAbs to the cSNK:BSA conjugate. […] MAbs were loaded onto sensors and then washed in PBST. Each sensor was associated with one of several cSNK:BSA standards (100 nM to 0 nM) and then washed in PBST. Data was processed statistically using ForteBio Data Analysis software to determine the strength of antigen-antibody binding (KD). For each mAb analyzed, a 1:1 model provided the “best fit”.

Q: With B16 as the binder, how does the Kd read?
A: The Kd was 1.43 nM.

Q: How did the Kd turn out when B17 was run?
A: The Kd was 1.26 nM.

Q: How did the Kd turn out when B18 was run?
A: Its Kd is 1.52 nM.

Q: With B19 as the binder, how does the Kd read?
A: Its Kd is 1.28 nM.

Q: With B20 as the binder, how does the Kd read?
A: The Kd was 1.88 nM.

Q: Which Kd does the source give for B21 here?
A: The Kd was 0.226 nM.

Q: Which Kd does the source give for B22 here?
A: Its Kd is 1.04 nM.

Each binder was assayed against T1, cSNK:BSA conjugate (assay: BLI (Octet), KD2).

Q: With B3 as the binder, how does the Kd read?
A: Its Kd is 0.001 nM.

Q: For B4, which Kd is on record?
A: The Kd was 8.25 nM.

Q: For B5, which Kd is on record?
A: Its Kd is 3.06 nM.

Q: With B6 as the binder, how does the Kd read?
A: Its Kd is 2.33 nM.

Q: How did the Kd turn out when B7 was run?
A: Its Kd is 3.95 nM.

Q: B8 was tested. Which Kd did it give?
A: Its Kd is 3.05 nM.

Q: For B9, which Kd is on record?
A: The Kd was 1.93 nM.

Q: B10 was tested. Which Kd did it give?
A: The Kd was 17.4 nM.

Q: How did the Kd turn out when B11 was run?
A: Its Kd is 4.2 nM.

Q: For B12, which Kd is on record?
A: Its Kd is 9.9 nM.

Q: With B13 as the binder, how does the Kd read?
A: Its Kd is 2.41 nM.

Q: With B14 as the binder, how does the Kd read?
A: Its Kd is 0.76 nM.

Q: With B15 as the binder, how does the Kd read?
A: Its Kd is 2.8 nM.

Reference: US20170008955A1 (CNJ, published 2017)
